# T1: Cre recombinase monomer with Q311R mutation
# T1 chain: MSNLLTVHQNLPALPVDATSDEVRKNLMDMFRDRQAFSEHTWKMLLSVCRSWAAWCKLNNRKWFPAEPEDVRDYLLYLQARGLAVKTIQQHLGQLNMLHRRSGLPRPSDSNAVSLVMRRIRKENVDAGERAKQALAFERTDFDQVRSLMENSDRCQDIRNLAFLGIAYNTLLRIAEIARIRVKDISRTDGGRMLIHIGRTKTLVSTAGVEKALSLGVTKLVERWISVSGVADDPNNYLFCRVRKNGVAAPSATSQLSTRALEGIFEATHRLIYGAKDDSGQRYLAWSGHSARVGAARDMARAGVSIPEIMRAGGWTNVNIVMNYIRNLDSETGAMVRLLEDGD
# Molecular target: T1, Cre recombinase monomer with Q311R …
row,Protein,Median dimer activity (recombination on loxP) [%]
1,Cre recombinase monomer with K201G mutation (protein) MSNLLTVHQNLPALPVDATSDEVRKNLMDMFRDRQAFSEHTWKMLLSVCRSWAAWCKLNNRKWFPAEPEDVRDYLLYLQARGLAVKTIQQHLGQLNMLHRRSGLPRPSDSNAVSLVMRRIRKENVDAGERAKQALAFERTDFDQVRSLMENSDRCQDIRNLAFLGIAYNTLLRIAEIARIRVKDISRTDGGRMLIHIGRTGTLVSTAGVEKALSLGVTKLVERWISVSGVADDPNNYLFCRVRKNGVAAPSATSQLSTRALEGIFEATHRLIYGAKDDSGQRYLAWSGHSARVGAARDMARAGVSIPEIMQAGGWTNVNIVMNYIRNLDSETGAMVRLLEDGD,90
2,Cre recombinase monomer with K201H mutation (protein) MSNLLTVHQNLPALPVDATSDEVRKNLMDMFRDRQAFSEHTWKMLLSVCRSWAAWCKLNNRKWFPAEPEDVRDYLLYLQARGLAVKTIQQHLGQLNMLHRRSGLPRPSDSNAVSLVMRRIRKENVDAGERAKQALAFERTDFDQVRSLMENSDRCQDIRNLAFLGIAYNTLLRIAEIARIRVKDISRTDGGRMLIHIGRTHTLVSTAGVEKALSLGVTKLVERWISVSGVADDPNNYLFCRVRKNGVAAPSATSQLSTRALEGIFEATHRLIYGAKDDSGQRYLAWSGHSARVGAARDMARAGVSIPEIMQAGGWTNVNIVMNYIRNLDSETGAMVRLLEDGD,94
3,Cre recombinase monomer with R292A mutation (protein) MSNLLTVHQNLPALPVDATSDEVRKNLMDMFRDRQAFSEHTWKMLLSVCRSWAAWCKLNNRKWFPAEPEDVRDYLLYLQARGLAVKTIQQHLGQLNMLHRRSGLPRPSDSNAVSLVMRRIRKENVDAGERAKQALAFERTDFDQVRSLMENSDRCQDIRNLAFLGIAYNTLLRIAEIARIRVKDISRTDGGRMLIHIGRTKTLVSTAGVEKALSLGVTKLVERWISVSGVADDPNNYLFCRVRKNGVAAPSATSQLSTRALEGIFEATHRLIYGAKDDSGQRYLAWSGHSAAVGAARDMARAGVSIPEIMQAGGWTNVNIVMNYIRNLDSETGAMVRLLEDGD,96
4,Cre recombinase monomer with K201S mutation (protein) MSNLLTVHQNLPALPVDATSDEVRKNLMDMFRDRQAFSEHTWKMLLSVCRSWAAWCKLNNRKWFPAEPEDVRDYLLYLQARGLAVKTIQQHLGQLNMLHRRSGLPRPSDSNAVSLVMRRIRKENVDAGERAKQALAFERTDFDQVRSLMENSDRCQDIRNLAFLGIAYNTLLRIAEIARIRVKDISRTDGGRMLIHIGRTSTLVSTAGVEKALSLGVTKLVERWISVSGVADDPNNYLFCRVRKNGVAAPSATSQLSTRALEGIFEATHRLIYGAKDDSGQRYLAWSGHSARVGAARDMARAGVSIPEIMQAGGWTNVNIVMNYIRNLDSETGAMVRLLEDGD,95
5,Cre recombinase monomer with R292F mutation (protein) MSNLLTVHQNLPALPVDATSDEVRKNLMDMFRDRQAFSEHTWKMLLSVCRSWAAWCKLNNRKWFPAEPEDVRDYLLYLQARGLAVKTIQQHLGQLNMLHRRSGLPRPSDSNAVSLVMRRIRKENVDAGERAKQALAFERTDFDQVRSLMENSDRCQDIRNLAFLGIAYNTLLRIAEIARIRVKDISRTDGGRMLIHIGRTKTLVSTAGVEKALSLGVTKLVERWISVSGVADDPNNYLFCRVRKNGVAAPSATSQLSTRALEGIFEATHRLIYGAKDDSGQRYLAWSGHSAFVGAARDMARAGVSIPEIMQAGGWTNVNIVMNYIRNLDSETGAMVRLLEDGD,42
6,Cre recombinase monomer with K201R mutation (protein) MSNLLTVHQNLPALPVDATSDEVRKNLMDMFRDRQAFSEHTWKMLLSVCRSWAAWCKLNNRKWFPAEPEDVRDYLLYLQARGLAVKTIQQHLGQLNMLHRRSGLPRPSDSNAVSLVMRRIRKENVDAGERAKQALAFERTDFDQVRSLMENSDRCQDIRNLAFLGIAYNTLLRIAEIARIRVKDISRTDGGRMLIHIGRTRTLVSTAGVEKALSLGVTKLVERWISVSGVADDPNNYLFCRVRKNGVAAPSATSQLSTRALEGIFEATHRLIYGAKDDSGQRYLAWSGHSARVGAARDMARAGVSIPEIMQAGGWTNVNIVMNYIRNLDSETGAMVRLLEDGD,98
7,Cre recombinase monomer with K201I mutation (protein) MSNLLTVHQNLPALPVDATSDEVRKNLMDMFRDRQAFSEHTWKMLLSVCRSWAAWCKLNNRKWFPAEPEDVRDYLLYLQARGLAVKTIQQHLGQLNMLHRRSGLPRPSDSNAVSLVMRRIRKENVDAGERAKQALAFERTDFDQVRSLMENSDRCQDIRNLAFLGIAYNTLLRIAEIARIRVKDISRTDGGRMLIHIGRTITLVSTAGVEKALSLGVTKLVERWISVSGVADDPNNYLFCRVRKNGVAAPSATSQLSTRALEGIFEATHRLIYGAKDDSGQRYLAWSGHSARVGAARDMARAGVSIPEIMQAGGWTNVNIVMNYIRNLDSETGAMVRLLEDGD,86
8,Cre recombinase monomer with H289R mutation (protein) MSNLLTVHQNLPALPVDATSDEVRKNLMDMFRDRQAFSEHTWKMLLSVCRSWAAWCKLNNRKWFPAEPEDVRDYLLYLQARGLAVKTIQQHLGQLNMLHRRSGLPRPSDSNAVSLVMRRIRKENVDAGERAKQALAFERTDFDQVRSLMENSDRCQDIRNLAFLGIAYNTLLRIAEIARIRVKDISRTDGGRMLIHIGRTKTLVSTAGVEKALSLGVTKLVERWISVSGVADDPNNYLFCRVRKNGVAAPSATSQLSTRALEGIFEATHRLIYGAKDDSGQRYLAWSGRSARVGAARDMARAGVSIPEIMQAGGWTNVNIVMNYIRNLDSETGAMVRLLEDGD,79
9,Cre recombinase monomer with R292I mutation (protein) MSNLLTVHQNLPALPVDATSDEVRKNLMDMFRDRQAFSEHTWKMLLSVCRSWAAWCKLNNRKWFPAEPEDVRDYLLYLQARGLAVKTIQQHLGQLNMLHRRSGLPRPSDSNAVSLVMRRIRKENVDAGERAKQALAFERTDFDQVRSLMENSDRCQDIRNLAFLGIAYNTLLRIAEIARIRVKDISRTDGGRMLIHIGRTKTLVSTAGVEKALSLGVTKLVERWISVSGVADDPNNYLFCRVRKNGVAAPSATSQLSTRALEGIFEATHRLIYGAKDDSGQRYLAWSGHSAIVGAARDMARAGVSIPEIMQAGGWTNVNIVMNYIRNLDSETGAMVRLLEDGD,97
10,Cre recombinase monomer with R292H mutation (protein) MSNLLTVHQNLPALPVDATSDEVRKNLMDMFRDRQAFSEHTWKMLLSVCRSWAAWCKLNNRKWFPAEPEDVRDYLLYLQARGLAVKTIQQHLGQLNMLHRRSGLPRPSDSNAVSLVMRRIRKENVDAGERAKQALAFERTDFDQVRSLMENSDRCQDIRNLAFLGIAYNTLLRIAEIARIRVKDISRTDGGRMLIHIGRTKTLVSTAGVEKALSLGVTKLVERWISVSGVADDPNNYLFCRVRKNGVAAPSATSQLSTRALEGIFEATHRLIYGAKDDSGQRYLAWSGHSAHVGAARDMARAGVSIPEIMQAGGWTNVNIVMNYIRNLDSETGAMVRLLEDGD,88
11,Cre recombinase monomer with K201T mutation (protein) MSNLLTVHQNLPALPVDATSDEVRKNLMDMFRDRQAFSEHTWKMLLSVCRSWAAWCKLNNRKWFPAEPEDVRDYLLYLQARGLAVKTIQQHLGQLNMLHRRSGLPRPSDSNAVSLVMRRIRKENVDAGERAKQALAFERTDFDQVRSLMENSDRCQDIRNLAFLGIAYNTLLRIAEIARIRVKDISRTDGGRMLIHIGRTTTLVSTAGVEKALSLGVTKLVERWISVSGVADDPNNYLFCRVRKNGVAAPSATSQLSTRALEGIFEATHRLIYGAKDDSGQRYLAWSGHSARVGAARDMARAGVSIPEIMQAGGWTNVNIVMNYIRNLDSETGAMVRLLEDGD,94
12,Cre recombinase monomer with R292G mutation (protein) MSNLLTVHQNLPALPVDATSDEVRKNLMDMFRDRQAFSEHTWKMLLSVCRSWAAWCKLNNRKWFPAEPEDVRDYLLYLQARGLAVKTIQQHLGQLNMLHRRSGLPRPSDSNAVSLVMRRIRKENVDAGERAKQALAFERTDFDQVRSLMENSDRCQDIRNLAFLGIAYNTLLRIAEIARIRVKDISRTDGGRMLIHIGRTKTLVSTAGVEKALSLGVTKLVERWISVSGVADDPNNYLFCRVRKNGVAAPSATSQLSTRALEGIFEATHRLIYGAKDDSGQRYLAWSGHSAGVGAARDMARAGVSIPEIMQAGGWTNVNIVMNYIRNLDSETGAMVRLLEDGD,97
13,Cre recombinase monomer with R292C mutation (protein) MSNLLTVHQNLPALPVDATSDEVRKNLMDMFRDRQAFSEHTWKMLLSVCRSWAAWCKLNNRKWFPAEPEDVRDYLLYLQARGLAVKTIQQHLGQLNMLHRRSGLPRPSDSNAVSLVMRRIRKENVDAGERAKQALAFERTDFDQVRSLMENSDRCQDIRNLAFLGIAYNTLLRIAEIARIRVKDISRTDGGRMLIHIGRTKTLVSTAGVEKALSLGVTKLVERWISVSGVADDPNNYLFCRVRKNGVAAPSATSQLSTRALEGIFEATHRLIYGAKDDSGQRYLAWSGHSACVGAARDMARAGVSIPEIMQAGGWTNVNIVMNYIRNLDSETGAMVRLLEDGD,93
14,Cre recombinase monomer with H289D mutation (protein) MSNLLTVHQNLPALPVDATSDEVRKNLMDMFRDRQAFSEHTWKMLLSVCRSWAAWCKLNNRKWFPAEPEDVRDYLLYLQARGLAVKTIQQHLGQLNMLHRRSGLPRPSDSNAVSLVMRRIRKENVDAGERAKQALAFERTDFDQVRSLMENSDRCQDIRNLAFLGIAYNTLLRIAEIARIRVKDISRTDGGRMLIHIGRTKTLVSTAGVEKALSLGVTKLVERWISVSGVADDPNNYLFCRVRKNGVAAPSATSQLSTRALEGIFEATHRLIYGAKDDSGQRYLAWSGDSARVGAARDMARAGVSIPEIMQAGGWTNVNIVMNYIRNLDSETGAMVRLLEDGD,97
15,Cre recombinase monomer with H289I mutation (protein) MSNLLTVHQNLPALPVDATSDEVRKNLMDMFRDRQAFSEHTWKMLLSVCRSWAAWCKLNNRKWFPAEPEDVRDYLLYLQARGLAVKTIQQHLGQLNMLHRRSGLPRPSDSNAVSLVMRRIRKENVDAGERAKQALAFERTDFDQVRSLMENSDRCQDIRNLAFLGIAYNTLLRIAEIARIRVKDISRTDGGRMLIHIGRTKTLVSTAGVEKALSLGVTKLVERWISVSGVADDPNNYLFCRVRKNGVAAPSATSQLSTRALEGIFEATHRLIYGAKDDSGQRYLAWSGISARVGAARDMARAGVSIPEIMQAGGWTNVNIVMNYIRNLDSETGAMVRLLEDGD,75
